Results taken from the supplement of paper PMC11246515.
± gives the standard deviation of the averaged measurements.

Experiment: total protein half-life in vivo (active degradation + dilution); higher = more stable protein
[1] = E. coli NCM3722 delta-clpP delta-lon delta-hslV, growth: N-lim chemostat, doubling time 6 h
[2] = E. coli NCM3722 delta-clpP, growth: N-lim chemostat, doubling time 6 h
[3] = E. coli NCM3722 delta-hslV, growth: N-lim chemostat, doubling time 6 h
[4] = E. coli NCM3722 delta-lon, growth: N-lim chemostat, doubling time 6 h
[5] = E. coli NCM3722 delta-smpB, growth: N-lim chemostat, doubling time 6 h
[6] = wild type E. coli NCM3722, growth: C-lim chemostat, doubling time 3 h
[7] = wild type E. coli NCM3722, growth: C-lim chemostat, doubling time 6 h
[8] = wild type E. coli NCM3722, growth: C-lim chemostat, doubling time 12 h
[9] = wild type E. coli NCM3722, growth: N-lim chemostat, doubling time 6 h
[10] = wild type E. coli NCM3722, growth: N-lim chemostat, doubling time 12 h
[11] = wild type E. coli NCM3722, growth: P-lim chemostat, doubling time 6 h
[12] = wild type E. coli NCM3722, growth: P-lim chemostat, doubling time 12 h

Sequence | total protein half-life in vivo [1] [h] | total protein half-life in vivo [2] [h] | total protein half-life in vivo [3] [h] | total protein half-life in vivo [4] [h] | total protein half-life in vivo [5] [h] | total protein half-life in vivo [6] [h] | total protein half-life in vivo [7] [h] | total protein half-life in vivo [8] [h] | total protein half-life in vivo [9] [h] | total protein half-life in vivo [10] [h] | total protein half-life in vivo [11] [h] | total protein half-life in vivo [12] [h]
MARIIVVTSGKGGVGKTTSSAAIATGLAQKGKKTVVIDFDIGLRNLDLIMGCERRVVYDFVNVIQGDATLNQALIKDKRTENLYILPASQTRDKDALTREGVAKVLDDLKAMDFEFIVCDSPAGIETGALMALYFADEAIITTNPEVSSVRDSDRILGILASKSRRAENGEEPIKEHLLLTRYNPGRVSRGDMLSMEDVLEILRIKLVGVIPEDQSVLRASNQGEPVILDINADAGKAYADTVERLLGEERPFRFIEEEKKGFLKRLFGG [P0AEZ3] | 5.31 ± 0.21 | 5.22 ± 0.21 | 5.442 ± 0.017 | 5.66 ± 0.15 | 4.87 ± 0.023 | 2.94 ± 0.16 | 5.54 ± 0.16 | 10.1 ± 0.8 | 5.17 ± 0.36 | 9.98 ± 0.53 | 4.93 ± 0.2 | 9.29 ± 0.22
MGKTQPLPILITGGGRRIGLALAWHFINQKQPVIVSYRTHYPAIDGLINAGAQCIQADFSTNDGVMAFADEVLKSTHGLRAILHNASAWMAEKPGAPLADVLACMMQIHVNTPYLLNHALERLLRGHGHAASDIIHFTDYVVERGSDKHIAYAASKAALDNMTRSFARKLAPEVKVNSIAPSLILFNEHDDAEYRQQALNKSLMKTAPGEKEVIDLVDYLLTSCFVTGRSFPLDGGRHLR [P0AFS3] | 5.23 ± 0.36 | 5.33 ± 1.2 | 5.31 ± 0.45 | 5.6 ± 0.53 | 4.85 ± 0.43 | 3.124 ± 0.021 | 5.67 ± 0.13 | 11.5 ± 1 | 5.32 ± 0.17 | 9.17 ± 0.28 | 5.56 ± 0.12 | 12.3 ± 0.39
MAEVTQLKRYDARPINWGKWFLIGIGMLVSAFILLVPMIYIFVQAFSKGLMPVLQNLADPDMLHAIWLTVMIALIAVPVNLVFGILLAWLVTRFNFPGRQLLLTLLDIPFAVSPVVAGLVYLLFYGSNGPLGGWLDEHNLQIMFSWPGMVLVTIFVTCPFVVRELVPVMLSQGSQEDEAAILLGASGWQMFRRVTLPNIRWALLYGVVLTNARAIGEFGAVSVVSGSIRGETLSLPLQIELLEQDYNTVGSFTAAALLTLMAIITLFLKSMLQWRLENQEKRAQQEEHHEH [P0AEB0] | 4.83 | 5.5 | 4.23 |  | 4.22 | 2.64 | 4.97 ± 1.4 |  | 4.59 | 4.73 | 4.26 | 10.7 ± 2
MAQFVYTMHRVGKVVPPKRHILKNISLSFFPGAKIGVLGLNGAGKSTLLRIMAGIDKDIEGEARPQPDIKIGYLPQEPQLNPEHTVRESIEEAVSEVVNALKRLDEVYALYADPDADFDKLAAEQGRLEEIIQAHDGHNLNVQLERAADALRLPDWDAKIANLSGGERRRVALCRLLLEKPDMLLLDEPTNHLDAESVAWLERFLHDFEGTVVAITHDRYFLDNVAGWILELDRGEGIPWEGNYSSWLEQKDQRLAQEASQEAARRKSIEKELEWVRQGTKGRQSKGKARLARFEELNSTEYQKRNETNELFIPPGPRLGDKVLEVSNLRKSYGDRLLIDDLSFSIPKGAIVGIIGPNGAGKSTLFRMISGQEQPDSGTITLGETVKLASVDQFRDSMDNSKTVWEEVSGGLDIMKIGNTEMPSRAYVGRFNFKGVDQGKRVGELSGGERGRLHLAKLLQVGGNMLLLDEPTNDLDIETLRALENALLEFPGCAMVISHDRWFLDRIATHILDYQDEGKVEFFEGNFTEYEEYKKRTLGADALEPKRIKYKRIAK [P0A9W3] | 4.99 ± 0.079 | 5.16 ± 1.3 | 4.696 ± 0.0076 | 4.99 ± 0.28 | 4.57 ± 0.13 | 3.142 ± 0.022 | 5.61 ± 0.25 | 10.3 ± 0.59 | 4.514 ± 0.025 | 7.31 ± 0.33 | 5.748 ± 0.023 | 11.6 ± 0.28
MKKLTVAALAVTTLLSGSAFAHEAGEFFMRAGSATVRPTEGAGGTLGSLGGFSVTNNTQLGLTFTYMATDNIGVELLAATPFRHKIGTRATGDIATVHHLPPTLMAQWYFGDASSKFRPYVGAGINYTTFFDNGFNDHGKEAGLSDLSLKDSWGAAGQVGVDYLINRDWLVNMSVWYMDIDTTANYKLGGAQQHDSVRLDPWVFMFSAGYRF [P0A915] | 6.65 ± 0.21 |  | 6.45 ± 0.39 |  | 6.21 ± 1.9 | 3.53 ± 0.14 | 7.52 ± 0.61 | 12.6 ± 1.5 | 7.26 | > 16 | 6.15 | 15.44 ± 0.068
MINYGVVGVGYFGAELARFMNMHDNAKITCVYDPENGENIARELQCINMSSLDALVSSKLVDCVIVATPNYLHKEPVIKAAKNKKHVFCEKPIALSYEDCVDMVKACKEAGVTFMAGHIMNFFNGVQYARKLIKEGVIGEILSCHTKRNGWENKQERLSWKKMKEQSGGHLYHHIHELDCVQHLLGEIPETVTMIGGNLAHSGPGFGNEDDMLFMTLEFPSGKLATLEWGSAFNWPEHYVIINGTKGSIKIDMQETAGSLRIGGQTKHFLVHETQEEDDDRRKGNMTSEMDGAIAYGHPGKKTPLWLASLIRKETLFLHNILCGAKPEEDYIDLLNGEAAMSAIATADAATLSRSQDRKVKISEIIKHTSVM | 5.16 | 4.32 | 4.31 ± 0.18 | 4.79 ± 0.4 | 4.29 ± 0.068 | 2.75 ± 0.66 | 6.07 ± 0.59 | 11.2 ± 1.7 | 4.39 ± 0.38 | 7.48 ± 0.85 | 6.27 ± 0.24 | 13.4 ± 1.4
